Read-outs that look alike come from different tables or passages of the source.

Experiment [1] has as its target human FcRn-eGFP on transduced HeLa cells (human) (UniProt P55899). Nature of the experiment: flow cytometry, hFcRn-eGFP HeLa cells, blocks Alexa647-hIgG, pH 6.0.
The target is the same in experiment [2]. The experiment is described as above. The source holds these as a separate data set.
Experiment [3] addresses T1, human FcRn (Biorbyt, cat. no. orb84388) (human, UniProt P55899 24-297; P61769 21-119, limits assumed).
T1 construct: Bought soluble protein; not biotinylated on Biacore chips and ELISA coat; also called hFcRn
Nature of the experiment: SPR Biacore, hFcRn immobilised; sample before the stability test (0). On the procedure: (§1) The His₆-tagged Z variants were further assessed in terms of preserved binding capacity to FcRn after introduction of alterations in the scaffold, as well as after having been subjected to the stability test, i.e. incubated at 37° C. for 2 weeks. Comparative kinetic constants (kₒₙ and koff) and affinities (KD) were determined using a Biacore 2000 instrument. The target protein human FcRn (Biorbyt, cat. no. orb 84388) was immobilized on the carboxylated dextran layer surface of a CM5 chip (GE Healthcare). The immobilization was performed using amine coupling chemistry according to the manufacturer's protocol and using HBS-EP as running buffer. One flow cell surface on the chip was activated and deactivated for use as blank during analyte injections. The immobilization level of hFcRn on the surface was approximately 750 RU. […] Regeneration by three pulses of HBS-EP followed by 10 min equilibration in running buffer was applied after each analyte injection. Kinetic constants were calculated from the sensorgrams using the Langmuir 1:1 model of the BiaEvaluation software 4.1 (GE Healthcare). Curves of the blank surface were subtracted from the curves of the ligand surfaces and the data from the buffer cycles were subtracted from the data of the test-sample cycles to correct for any drift in signal.
T1 sequence (P55899 24-297 limits assumed, chain 1 of 2): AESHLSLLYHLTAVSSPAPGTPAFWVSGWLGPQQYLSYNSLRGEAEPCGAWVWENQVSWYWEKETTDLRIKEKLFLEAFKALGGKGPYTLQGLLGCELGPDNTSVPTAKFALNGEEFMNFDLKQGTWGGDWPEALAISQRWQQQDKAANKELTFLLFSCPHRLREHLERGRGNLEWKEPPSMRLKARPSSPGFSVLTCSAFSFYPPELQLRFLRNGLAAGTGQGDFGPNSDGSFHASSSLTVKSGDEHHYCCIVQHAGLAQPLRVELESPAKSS
T1 sequence (P61769 21-119 limits assumed, chain 2 of 2): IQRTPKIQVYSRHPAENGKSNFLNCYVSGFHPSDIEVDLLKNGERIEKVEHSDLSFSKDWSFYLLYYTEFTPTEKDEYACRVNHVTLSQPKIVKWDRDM

For experiment [4], the target named is T1, human FcRn (Biorbyt, cat. no. orb84388). Nature of the experiment: SPR Biacore, hFcRn immobilised; sample after 2 weeks at 37 °C (2 w). On the procedure:
as §1

Experiment [5] has as its target T2, human FcRn (Biorbyt, cat. no. orb84388) (human, UniProt P55899 24-297; P61769 21-119, limits assumed).
T2 construct: Bought protein; also called hFcRn
The experiment can be described thus: ELISA screening; periplasm with the ABD moiety only captured on anti-ABD antibody, biotinylated hFcRn at 2 nM. The method, then: After washing as described above, 50 μl ImmunoPure TMB substrate (Thermo Scientific, cat. no. 34021) was added to the wells and the plates were treated according to the manufacturer's recommendations.
T2 sequence (P55899 24-297 limits assumed, chain 1 of 2): as the sequence (P55899 24-297 limits assumed, chain 1 of 2) above
T2 sequence (P61769 21-119 limits assumed, chain 2 of 2): as the sequence (P61769 21-119 limits assumed, chain 2 of 2) above

Sequence of human FcRn-eGFP on transduced HeLa cells (human) (P55899 24-365, chain 1 of 2): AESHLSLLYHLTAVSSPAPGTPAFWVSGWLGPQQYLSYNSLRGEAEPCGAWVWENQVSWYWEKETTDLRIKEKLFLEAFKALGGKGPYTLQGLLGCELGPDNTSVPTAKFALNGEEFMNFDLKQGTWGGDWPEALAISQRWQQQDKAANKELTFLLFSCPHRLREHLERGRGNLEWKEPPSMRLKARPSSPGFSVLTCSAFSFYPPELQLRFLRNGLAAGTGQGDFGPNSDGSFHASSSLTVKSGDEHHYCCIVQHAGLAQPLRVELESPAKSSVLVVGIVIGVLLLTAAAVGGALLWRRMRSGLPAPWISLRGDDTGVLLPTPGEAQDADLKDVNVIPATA
Sequence of human FcRn-eGFP on transduced HeLa cells (human) (b2m, as listed by the source, chain 2 of 2): as the sequence (P61769 21-119 limits assumed, chain 2 of 2) above

For “Subcutaneous immunoglobulin (SCIg; Gammanorm, Octapharma) (antibody)”, in experiment [1], the IC50 came to 120 nM.
In the case of “Intravenous immunoglobulin (IVIg; Octagam, Octapharma) (antibody)”, the IC50 came to 170 nM in experiment [1] and 150 nM in experiment [2].

B1: His6-tagged Z17348 (designed binder)
chain: MGSSHHHHHHLQAEAKYAKEQDAAAHEIRWLPNLTFDQRVAFIHKLARQPEQSSELLSEAKKLSESQAPK
In experiment [3], B1 showed a Kd of 5.5 nM, a koff of 0.01 s⁻¹ and a kon of 1.82e+06 M⁻¹ s⁻¹. In experiment [4], the Kd was determined as 6.3 nM, the koff came out at 0.00809 s⁻¹ and the kon stood at 1.28e+06 M⁻¹ s⁻¹.
As to LAEAKVLANRELDKYGVSDYYKNLINNAKTVEGVKALIDEILAALP (other, Streptococcus strain G148, UniProt P19909 254-299, looked up, domain: GA3) [ABD moiety only (periplasm, negative control)], the binding result in experiment [5] is reported as “no binding (tested: 2 nM)”.

(Values after US20190284241A1 (Affibody, published 2019).)
